Measured values from US20200279616A1.

Key:
[1] = molecular target: HLA monomer of the STII-TR-FRET peptide exchange assay (secreted HLA class II alpha/beta heterodimer; allele not stated); test: TR-FRET peptide exchange titration on 20nM DRB1*01:01 (STII-CLIP), 37C; displaced: m2
[2] = molecular target: T1, HLA-DRB1*01:01 (biochemical MHC-peptide affinity assay) (human); test: biochemical MHC-peptide affinity assay
T1 chain 1: not shown
T1 chain 2: not shown

[3] = molecular target: T2, HLA-DRB1*11:01 (biochemical MHC-peptide affinity assay) (human); test: biochemical MHC-peptide affinity assay
T2 chain 1: not shown
T2 chain 2: not shown

[4] = molecular target: T3, Thrombin digested soluble HLA-DRB1*15:01 (CLIP0 placeholder construct) (human); test: FP probe displacement; probe m27
[5] = molecular target: T3, Thrombin digested soluble …; test: differential scanning fluorometry after peptide exchange (Sypro orange)

CLIP (peptide) gave an IC50 (read off the curve) [1] of 70 nM.

B1: … (peptide)
peptide: GHPDLQGQPAEEIFES
modifications: not checked
B1 gave a Measured affinity [2] of 189 nM.

B2: … (peptide)
peptide: YEDKFRNNLKGKRLD
modifications: not checked
B2 was tested, and the Measured affinity [3] was 254 nM.

B3: … (peptide)
peptide: GQQWTYEQRKIVE
modifications: not checked
In the case of B3, the Measured affinity [3] is reported as 145 nM.

B4: … (peptide)
peptide: LNELKPISKGGHSS
modifications: not checked
With B4 the Measured affinity [3] was 67 nM.

B5: … (peptide)
peptide: DVNEYAPVFKEKSYK
modifications: not checked
B5 gave a Measured affinity [3] of 223 nM.

B6: … (peptide)
peptide: GLRYKKLHDPKGWIT
modifications: not checked
Molecule B6 has a Measured affinity [2] of 30 nM.

B7: … (peptide)
peptide: MPSFVPSDGRQAAD
modifications: not checked
B7 showed a Measured affinity [2] of 3 nM.

B8: M371 (peptide)
peptide: ASLRSWPSTWAPWAS
modifications: not checked
For B8, the % inhibition of probe binding at 0.1uM [4] was 46%, the % inhibition of probe binding at 1uM [4] was 58% and the % inhibition of probe binding at 10uM [4] was 74%. It also gave a DTm (sample Tm - control Tm) [5] of 19.9.

B9: M230 (peptide)
peptide: PPIDGYPNHPCFEPE
modifications: not checked
In the case of B9, the % inhibition of probe binding at 0.1uM [4] is reported as 49%, the % inhibition of probe binding at 1uM [4] is reported as 79% and the % inhibition of probe binding at 10uM [4] is reported as 82%. The DTm (sample Tm - control Tm) [5] was 21.4.

B10: … (peptide)
peptide: DLEELEVLERKPAAG
modifications: not checked
B10 was tested, and the Measured affinity [3] was 63 nM.

B11: … (peptide)
peptide: DKKNIILEEGKEILVG
modifications: not checked
B11 was tested, and the Measured affinity [2] was 27 nM.

B12: M248 (peptide)
peptide: LLRPGQIVAFDSTAQ
modifications: not checked
B12 gave a % inhibition of probe binding at 0.1uM [4] of 1%, a % inhibition of probe binding at 1uM [4] of 6% and a % inhibition of probe binding at 10uM [4] of 61%. For the same molecule, the DTm (sample Tm - control Tm) [5] was 5.6.

B13: … (peptide)
peptide: EPAEFIIDTRDAGYG
modifications: not checked
For B13, the Measured affinity [3] was 195 nM.

B14: … (peptide)
peptide: TWFNQPARKIR
modifications: not checked
B14 was tested, and the Measured affinity [2] was 8 nM.

B15: … (peptide)
peptide: TRNEVIPMSHPGAVD
modifications: not checked
For B15, the Measured affinity [3] was 36 nM.

B16: … (peptide)
peptide: IAGEWQVLHREGAIT
modifications: not checked
B16 showed a Measured affinity [3] of 35 nM.

B17: … (peptide)
peptide: DRYEMEDGKVIER
modifications: not checked
B17 gave a Measured affinity [2] of 54 nM.

B18: … (peptide)
peptide: ENPYFAPNPKIIRQ
modifications: not checked
For B18, the Measured affinity [3] was 128 nM.

B19: M231 (peptide)
peptide: PQILPYPAPEEAQEN
modifications: not checked
In the case of B19, the % inhibition of probe binding at 0.1uM [4] is reported as 21%, the % inhibition of probe binding at 1uM [4] is reported as 50% and the % inhibition of probe binding at 10uM [4] is reported as 66%. For the same molecule, the Average Tm [5] was 73.9 and the DTm (sample Tm - control Tm) [5] was 15.6.

B20: … (peptide)
peptide: LAPTWEELSKKEFPG
modifications: not checked
In the case of B20, the Measured affinity [3] is reported as 174 nM.

B21: … (peptide)
peptide: SPHAFKTESGEETDL
modifications: not checked
In the case of B21, the Measured affinity [2] is reported as 333 nM.

B22: M247 (peptide)
peptide: PQLRQWWAQGADPLA
modifications: not checked
B22 was tested, and the % inhibition of probe binding at 0.1uM [4] was 42%, the % inhibition of probe binding at 1uM [4] was 50% and the % inhibition of probe binding at 10uM [4] was 58%. The DTm (sample Tm - control Tm) [5] was 20.1.

B23: … (peptide)
peptide: GPFSFSVIDKPPG
modifications: not checked
With B23 the Measured affinity [3] was 209 nM.

B24: … (peptide)
peptide: GVQRGLVGEIIKR
modifications: not checked
B24 gave a Measured affinity [2] of 8 nM.

B25: … (peptide)
peptide: GMNIVEAMERFGSRNG
modifications: not checked
B25 gave a Measured affinity [3] of 79 nM.

B26: … (peptide)
peptide: EGEYQGIPRAESGG
modifications: not checked
With B26 the Measured affinity [3] was 159 nM.
